Measurements from publication PMC12796488, “Distinct structural features of Pseudomonas aeruginosa ATP synthase revealed by cryo-electron microscopy” (Nature Communications, 2025).

Biological target: the molecule itself
Experiment: cryo-EM structure; purified F1Fo complex in digitonin; 10 mM MgADP and 230 uM compound #5 added, 1 h on ice before freezing; maps at 2.0-3.0 Å

B1: P. aeruginosa ATP synthase subunit c (natural protein, Pseudomonas aeruginosa, UniProt Q9HT15 1-85, looked up)
chain: METVVGLTAIAVALLIGLGALGTAIGFGLLGGKFLEGAARQPEMVPMLQVKMFIVAGLLDAVTMIGVGIALFFTFANPFVGQIAG
notes: ATP synthase subunit c of Pseudomonas aeruginosa, expressed from the whole operon (atpIBEFHAGDC) plasmid pASH20; A ring of ten copies in the cryo-EM maps; also called c subunit; c-ring; source: E. coli DK8, purified as part of the whole F1Fo complex (digitonin extraction, Talon resin, Superose 6 SEC); copies: 10
stoichiometry N: 10
